Laboratory results taken from patent publication US20220162322A1 (CAPELLA BIOSCIENCE, published 2022).
Positions count from the first letter of the chain named.

Experiments:
[1] = target: T1, human BDCA-2 (CLEC4C) expressed on transfected U937 cells (human, UniProt Q8WTT0 1-213); test: flow cytometry (MFI titration) on cells expressing human BDCA-2
T1 construct: also called cell expressed human BDCA-2; Q8WTT0
T1 sequence: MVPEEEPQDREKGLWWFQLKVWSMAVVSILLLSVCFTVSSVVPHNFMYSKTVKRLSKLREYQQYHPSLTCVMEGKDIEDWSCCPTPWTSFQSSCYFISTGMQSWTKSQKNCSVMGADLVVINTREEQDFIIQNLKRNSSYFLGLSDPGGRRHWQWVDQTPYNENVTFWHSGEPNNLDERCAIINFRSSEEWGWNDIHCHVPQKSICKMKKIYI
Description: (§1) Cells expressing human and cynomolgus BDCA-2 were resuspend at 2×10⁶ cells/mi in FACS buffer (2% FBS/PBS) and 50 μl of the cell suspension was added per well, in a 96-well V bottom plate. The plate was centrifuge and the supernatant discarded. 12 serial, 2-fold dilutions of mAbs, starting at 50 μg/ml (range 50-0.024 μg/ml), in FACS buffer were prepared and 25 μl of the mAb dilutions added to wells, in triplicate. The plate was then incubated for 60 min at room temperature then centrifuged and washed 3× with 150 μl FACS buffer. To each well was then added 25 μl goat-anti-human PE conjugate (or goat-anti-mouse in the case of AC144), diluted 1:200 in FACS buffer. The plates were incubated for 60 min at room temperature protected from light and centrifuged and washed 3× with 150 μl FACS buffer. 25 μl per well of 2% PFA 2% was added and incubated for 20 min at 4° C., protected from light and analysed on the iQue screener.
(§2) Serial dilutions of the 4 chimeric mAbs (50-0.25 ug/ml) were prepared and incubated with cells expressing human and cynomolgus BDCA-2. After staining, the median fluorescence intensity (MFI) of the cells was measured and the data points of the dilution series were fitted on a sigmoidal curve after normalization to determine the EC50 values.

[2] = target: T2, cynomolgus BDCA-2 expressed on transfected U937 cells (cynomolgus, UniProt Q8WTT0 1-213 (human entry)); test: flow cytometry (MFI titration) on cells expressing cynomolgus BDCA-2
T2 construct: also called cell expressed cynomolgus BDCA-2
T2 chain: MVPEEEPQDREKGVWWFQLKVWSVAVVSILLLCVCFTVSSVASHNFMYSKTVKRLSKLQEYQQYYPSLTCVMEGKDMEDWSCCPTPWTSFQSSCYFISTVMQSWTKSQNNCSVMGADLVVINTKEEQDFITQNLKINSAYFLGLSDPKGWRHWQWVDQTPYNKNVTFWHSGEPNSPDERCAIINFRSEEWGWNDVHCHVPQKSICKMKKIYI
Description: as §1, §2

[3] = target: T3, human BDCA-2-Fc (hIgG1-Fc-hBDCA-2) (human); test: SPR (BIAcore T200), huBDCA2-Fc immobilised on CM5 chip, mAb injected
T3 construct: also called huBDCA2-Fc
T3 sequence (chain, as listed by the source limits assumed): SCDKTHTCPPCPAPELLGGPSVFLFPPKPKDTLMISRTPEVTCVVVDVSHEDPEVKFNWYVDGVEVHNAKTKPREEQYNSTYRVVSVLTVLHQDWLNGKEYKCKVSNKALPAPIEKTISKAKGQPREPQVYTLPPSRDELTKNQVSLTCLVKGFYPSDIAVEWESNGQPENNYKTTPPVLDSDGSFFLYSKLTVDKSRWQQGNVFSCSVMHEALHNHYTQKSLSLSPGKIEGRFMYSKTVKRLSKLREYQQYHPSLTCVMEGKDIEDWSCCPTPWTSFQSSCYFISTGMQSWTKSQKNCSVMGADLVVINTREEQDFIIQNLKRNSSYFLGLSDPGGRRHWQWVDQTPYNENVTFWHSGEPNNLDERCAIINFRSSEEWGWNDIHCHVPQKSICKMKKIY
Description: A BIAcore T200 was used with BIAcore run buffer (HBS-EP) at pH7.4. 692RU of huBDCA2-Fc was immobilized to a CM5 chip (CFJB156) utilising 5 μg/ml of huBDCA2-Fc with the BIAcore EDC/NHS kit according to the manufacturer's instructions. Two-fold dilutions of the humanized mAbs were injected starting at 200 nM down to 3.1 nM with a contact time of 60 s at a flow of 30 or 60 ul/min at 25° C. followed by an off-rate wash for 5 minutes with BIAcore buffer. […] The BIAcore T200 software was used to calculate Ka (1/Ms), Kd (1/s) and the KD (nM).

[4] = target: T3, human BDCA-2-Fc (hIgG1-Fc-hBDCA-2); test: ELISA on plate-coated human BDCA2-Fc
Description: 100 ul per well of 0.5 μg/ml of human BDCA2-Fc in PBS pH 7.4 was incubated overnight at 4 C. The wells were then washed 3 times with PBST (PBS+0.05% Tween 20) and then blocked with 250 ul 4% Skimmed Milk (Marvel, cat. no. 3023033 Lot no. 7169) in PBS for 120 min at RT. The wells were washed and then incubated with 100 ul per well of humanized mAbs at 3 fold dilutions (from 1 μg/ml to 0.001 μg/ml) in 1% Skimmed Milk PBS buffer at pH 7.4. After 60 min at RT the wells were washed 3 times in PBST and 100 ul of mouse anti-human IgG (anti-CH1-HRP; 1:1000, BD Pharmigen cat. no. 555788) or donkey anti-mouse IgG (anti-mouse IgG-HRP) at 1:5000 dilution (Jackson ImmunoResearch, Cat. no. 715-035-150) in 1% Skimmed Milk PBS was added. Development was with TMB (ThermoFisher, cat. no. 00-4201-56), 100 ul/well and the reaction stopped with 100 μl/well H2SO4 (cat. nr. J/8430/15, lot nr.) and the absorbance read at 450 nm. The EC50 was calculated using Graphpad Prism software. A negative (1% Skimmed Milk/PBS) and positive control (anti-BDCA-2, AC144, Miltenyi Biotec, cat. no. 130-090-690) were utilised in the assay.

[5] = target: T3, human BDCA-2-Fc (hIgG1-Fc-hBDCA-2); test: SPR (BIAcore), comparison of KD
[6] = target: T4, BDCA-2 (CLEC4C, CD303) on human plasmacytoid dendritic cells (purified pDC or pDC within PBMC) (human, UniProt Q8WTT0 1-213); test: cell-based or functional assay
T4 sequence: T1 sequence

[7] = target: T4, BDCA-2 (CLEC4C, CD303) on human …; test: cell-based or functional assay; remark: listed apart in the source

B1: chimeric mAb 25E06 (antibody, human IgG1, V domains shown)
VH: EVKLVESGGGLVKPGGSLKLSCAASGFTFSSYTMSWVRQTPEKRLEWVAYISGVGGDTYYPDSVKGRFTISRDNARNTLYLQMSSLRSEDTAMFYCARHHYSHYFWYFDVWGAGTTVTVSS
VL: DIVLTQSPASLAVSLGQRATISCKASQSVDYDGDGFMNWYQQKPGQPPKLLIYAASNLESGIPARFSGSGSGADFTLNIHPVEEEDAATYYCQQSNEDPPTFGGGTKLEIK
notes: also called Parental 25E06
EC50 [1]: 0.57 µg/mL
EC50 [2]: 1.35 µg/mL

B2: chimeric mAb 21E06 (antibody, human IgG1, V domains shown)
VH: EVKLVESGGGLVKSGGSLKLSCEVSGFTFSSYTISWVRQTPEKRLEWVAYISSGGDNAYYPDSVKGRFTISRDNARNTLYLQMSSLRSEDTAMYYCARHLYYGDYFYVMDYWGQGTSVTVSS
VL: B1 VL with G35N, F36C, M37L, N38H, Y40F, A73T
notes: also called Parental 21E06
EC50 [1]: 0.3 µg/mL
EC50 [2]: 0.92 µg/mL

B3: chimeric mAb 28B01 (antibody, human IgG1, V domains shown)
VH: B1 VH with S31Y, G53S, V54G, G56D, D57N, T58A, K65R, F94Y, H103N
VL: B1 VL with D32A, G35S, F36Y, M37V, A73T
notes: also called 28B1; Parental 28B01
EC50 [1]: 0.77 µg/mL
EC50 [2]: 0.79 µg/mL

B4: anti-BDCA-2 mAb BIIB059 (from patent WO2014093396) (antibody, V domains shown)
VH: DVQLVESGGGLVKPGGSLRLSCAASGFTFSTYTMSWVRQAPGKGLEWVATISPGDSFGYYYPDSVQGRFTISRDNAKNSLYLQMNSLRAEDTAVYYCTRDIYYNYGAWFAYWGQGTLVTVSS
VL: DIQLTQSPSSLSASVGDRVTITCKASQSVDYDGDSYMNWYQQKPGKAPKLLIYAASTLESGVPSRFSGSGSGTDFTLTISSLQPEDFATYYCQQANEDPRTFGQGTKVEIKR
Kd [3]: 0.7 nM

B5: 3E05_var1 (antibody, human IgG1, V domains shown)
VH: EVQLVESGGGLVKPGGSLRLSCAASGFTFSSYTMSWVRQAPGKGLEWVAYISSGGGNTYYPDSVKGRFTISRDNAKNSLYLQMNSLRAEDTAVYYCARHDYYDGGLYYAMDYWGQGTLVTVSS
VL: DIVMTQSPDSLAVSLGERATINCKASQSVDYDGDSSMNWYQQKPGQPPKLLISAASTLESGVPSRFSGSGSGTDFTLTISSLQAEDVAVYYCQQTNEDPPTFGGGTKVEIK
notes: also called 3E05 VL1VH1 (var_1)
EC50 [4]: 0.51 nM
fold higher affinity than parental wild type 3E05 and AC144 [5]: > 100 fold
Kd [3]: < 0.01 nM

B6: 3E05_var14 (antibody, human IgG1, V domains shown)
VH: B5 VH with E1Q, A49S, P61A
VL: B5 VL with D32E
notes: also called 3E05 VL4VH2 (var_14); 3E05VL4VH2 (var_14)
EC50 [4]: 0.32 nM
IC50, ng/ml; inhibition of IFNα from ODN stimulated healthy donor PBMC [6]: 19.3 ng/mL
IC90, ng/ml; inhibition of IFNα from ODN stimulated healthy donor PBMC [6]: 173 ng/mL
IC50, nM; inhibition of IFNα from ODN stimulated healthy donor PBMC [7]: 0.13 nM
IC90, nM; inhibition of IFNα from ODN stimulated healthy donor PBMC [7]: 1.15 nM
fold higher affinity than parental wild type 3E05 and AC144 [5]: > 100 fold
Kd [3]: < 0.01 nM

B7: 3E05_var11 (antibody, human IgG1, V domains shown)
VH: B5 VH with N57Q
VL: B5 VL with A25S, S53Y, V89T
notes: also called 3E05 VL3VH3 (var_11)
EC50 [4]: 0.81 nM
Kd [3]: 0.94 nM

B8: 3E05_var4 (antibody, human IgG1, V domains shown)
VH: B5 VH with N57Q, D103E
VL: B5 VL
notes: also called 3E05 VL1VH4 (var_4)
EC50 [4]: 0.29 nM
fold higher affinity than parental wild type 3E05 and AC144 [5]: > 100 fold
Kd [3]: < 0.01 nM

B9: 3E05_var8 (antibody, human IgG1, V domains shown)
VH: B5 VH with N57Q, D103E
VL: B5 VL with A25S, V89T
EC50 [4]: 0.21 nM
fold higher affinity than parental wild type 3E05 and AC144 [5]: > 100 fold
Kd [3]: < 0.01 nM

B10: 3E05_var5 (antibody, human IgG1, V domains shown)
VH: B5 VH
VL: B5 VL with A25S, V89T
notes: also called 3E05 VL2VH1 (var_5)
EC50 [4]: 0.51 nM
fold higher affinity than parental wild type 3E05 and AC144 [5]: > 100 fold
Kd [3]: < 0.01 nM

B11: 3E05_var15 (antibody, human IgG1, V domains shown)
VH: B5 VH with N57Q
VL: B5 VL with D32E
notes: also called 3E05 VL4VH3 (var_15)
EC50 [4]: 0.25 nM
fold higher affinity than parental wild type 3E05 and AC144 [5]: > 100 fold
Kd [3]: < 0.01 nM

B12: 3E05_var13 (antibody, human IgG1, V domains shown)
VH: B5 VH
VL: B5 VL with D32E
notes: also called 3E05 VL4VH1 (var_13)
EC50 [4]: 0.45 nM
fold higher affinity than parental wild type 3E05 and AC144 [5]: > 100 fold
Kd [3]: < 0.01 nM

B13: 3E05_var9 (antibody, human IgG1, V domains shown)
VH: B5 VH
VL: B5 VL with A25S, S53Y, V89T
notes: also called 3E05 VL3VH1 (var_9)
EC50 [4]: 1.12 nM
fold higher affinity than parental wild type 3E05 and AC144 [5]: > 100 fold
Kd [3]: < 0.01 nM

B14: 3E05_var6 (antibody, human IgG1, V domains shown)
VH: B5 VH with E1Q, A49S, P61A
VL: B5 VL with A25S, V89T
notes: also called 3E05 VL2VH2 (var_6); 3E05VL2VH2 (var_6)
EC50 [4]: 0.29 nM
IC50, ng/ml; inhibition of IFNα from ODN stimulated healthy donor PBMC [6]: 12.3 ng/mL
IC90, ng/ml; inhibition of IFNα from ODN stimulated healthy donor PBMC [6]: 110 ng/mL
IC50, nM; inhibition of IFNα from ODN stimulated healthy donor PBMC [7]: 0.08 nM
IC90, nM; inhibition of IFNα from ODN stimulated healthy donor PBMC [7]: 0.73 nM
fold higher affinity than parental wild type 3E05 and AC144 [5]: > 100 fold
Kd [3]: < 0.01 nM

B15: 3E05_var3 (antibody, human IgG1, V domains shown)
VH: B5 VH with N57Q
VL: B5 VL
notes: also called 3E05 VL1VH3 (var_3)
EC50 [4]: 0.27 nM
fold higher affinity than parental wild type 3E05 and AC144 [5]: > 100 fold
Kd [3]: < 0.01 nM

B16: 3E05_var16 (antibody, human IgG1, V domains shown)
VH: B5 VH with N57Q, D103E
VL: B5 VL with D32E
EC50 [4]: 0.25 nM
fold higher affinity than parental wild type 3E05 and AC144 [5]: > 100 fold
Kd [3]: < 0.01 nM

B17: 3E05_var2 (antibody, human IgG1, V domains shown)
VH: B5 VH with E1Q, A49S, P61A
VL: B5 VL
notes: also called 3E05 VL1VH2 (var_2)
EC50 [4]: 0.32 nM
Kd [3]: 0.3 nM

B18: 3E05_var7 (antibody, human IgG1, V domains shown)
VH: B5 VH with N57Q
VL: B5 VL with A25S, V89T
notes: also called 3E05 VL2VH3 (var_7)
EC50 [4]: 0.33 nM
fold higher affinity than parental wild type 3E05 and AC144 [5]: > 100 fold
Kd [3]: < 0.01 nM

B19: 3E05_var10 (antibody, human IgG1, V domains shown)
VH: B5 VH with E1Q, A49S, P61A
VL: B5 VL with A25S, S53Y, V89T
notes: also called 3E05 VL3VH2 (var_10)
EC50 [4]: 0.71 nM
Kd [3]: 0.73 nM
